Test results as given in patent publication US20050282743A1 (ARBOR VITA, published 2005).

What was measured:
HPV E6 33 (modified) = target: T1, HPV E6 33 (modified) (HPV strain 33); assay: G assay titration, PDZ 0.5 ug/ml
T1 construct: also called AA72.1

[1] = target: HPV E6 #35 (cysteine-free) (HPV strain 35); assay: G assay titration, PDZ 5 ug/ml
HPV E6 58 (modified) [2] = target: T2, HPV E6 58 (modified) (HPV strain 58); assay: G assay titration, PDZ 0.5 ug/ml
T2 construct: also called AA75.1

[3] = target: HPV E6 #66 (cysteine-free) (HPV strain 66); assay: G assay titration, PDZ 1 ug/ml
[4] = target: HPV E6 #66 (cysteine-free) (HPV strain 66); assay: G assay titration, PDZ 0.5 ug/ml
[5] = target: HPV E6 #35 (cysteine-free) (HPV strain 35); assay: G assay titration, PDZ 0.5 ug/ml
[6] = target: HPV E6 #66 (cysteine-free) (HPV strain 66); assay: G assay titration, PDZ 5 ug/ml
HPV E6 77 (modified) = target: T3, HPV E6 77 (modified) (HPV strain 77); assay: G' assay; Classification 0 = A450 nm 0, not found to interact
T3 construct: also called AA78.1

[7] = target: HPV E6 #57 (cysteine-free) (HPV strain 57); assay: as above
HPV E6 58 (modified) [8] = target: T2, HPV E6 58 (modified); assay: G assay titration, PDZ 5 ug/ml
HPV E6 58 (modified) [9] = target: T2, HPV E6 58 (modified); assay: G assay titration, PDZ 3 ug/ml

B1: GST-KIAA1095 PDZ domain 1 (other, not shown: a dimerising Fc or GST)
chain: QGEETKSLTLVLHRDSGSLGFNIIGGRPSVDNHDGSSSEGIFVSKIVDSGPAAKEGGLQIHDRIIEVNGRDLSRATHDQAVEAFKTAKEPIVVQVLRRTPRTKMFTP
HPV E6 33 (modified)
  Kd: 5 µM

B2: GST-KIAA1526 PDZ domain 1 (other, not shown: a dimerising Fc or GST)
chain: PDSAGPGEVRLVSLRRAKAHEGLGFSIRGGSEHGVGIYVSLVEPGSLAEKEGLRVGDQILRVNDKSLARVTHAEAVKALKGSKKLVLSVYSAGRIPGGYVTNH
[1]
  Kd: 1 µM

B3: GST-ERBIN PDZ domain 1 (other, not shown: a dimerising Fc or GST)
chain: QGHELAKQEIRVRVEKDPELGFSISGGVGGRGNPFRPDDDGIFVTRVQPEGPASKLLQPGDKIIQANGYSFINIEHGQAVSLLKTFQNTVELIIVREVSS
[1]
  Kd: 0.4 µM

B4: GST-DLG1 PDZ domain 2 (other, not shown: a dimerising Fc or GST)
chain: IQLIKGPKGLGFSIAGGVGNQHIPGDNSIYVTKIIEGGAAHKDGKLQIGDKLLAVNNVCLEEVTHEEAVTALKNTSDFVYLKVAKPTSMYMNDGN
HPV E6 33 (modified)
  Kd: 5 µM

B5: GST-Atrophin-1 Interacting Protein PDZ domain 2 (other)
chain: LSGATQAELMTLTIVKGAQGFGFTIADSPTGQRVKQILDIQGCPGLCEGDLIVEINQQNVQNLSHTEVVDILKDCPIGSETSLIIHRGGFF
[1]
  Kd: 0.8 µM

B6: GST-Outer Membrane PDZ domain 1 (other, not shown: a dimerising Fc or GST)
chain: LLTEEEINLTRGPSGLGFNIVGGTDQQYVSNDSGIYVSRIKENGAAALDGRLQEGDKILSVNGQDLKNLLHQDAVDLFRNAGYAVSLRVQHRLQVQNGIHS
HPV E6 58 (modified) [2]
  Kd: 5 µM

B7: GST-Atrophin-1 Interacting Protein PDZ domain 1 (other, not shown: a dimerising Fc or GST)
chain: REKPLFTRDASQLKGTFLSTTLKKSNMGFGFTIIGGDEPDEFLQVKSVIPDGPAAQDGKMETGDVIVYINEVCVLGHTHADVVKLFQSVPIGQSVNLVLCRGYP
notes: also called Atrophin-1 Inter; Prot; Atr-P (1/6)
HPV E6 33 (modified)
  Kd: 5 µM

B8: GST-TIP1 PDZ domain 1 (Table 9 insert) (other, not shown: a dimerising Fc or GST)
chain: QRVEIHKLRQGENLILGFSIGGGIDQDPSQNPFSEDKTDKGIYVTRVSEGGPAEIAGLQIGDKIMQVNGWDMTMVTHDQARKRLTKRSEEVVRLLVTRQSLQK
notes: also called TIP-1 1/1
[3]
  Kd: 5 µM

B9: GST-NeDLG PDZ domains 1, 2 (other, not shown: a dimerising Fc or GST)
chain: YEEIVLERGNSGLGFSIAGGIDNPHVPDDPGIFITKIIPGGAAAMDGRLGVNDCVLRVNEVDVSEVVHSRAVEALKEAGPVVRLVVRRRQPPPETIMEVNLLKGPKGLGFSIAGGIGNQHIPGDNSIYITKIIEGGAAQKDGRLQIGDRLLAVNNTNLQDVRHEEAVASLKNTSDMVYLKVAKPGSL
notes: domain: PDZ domains 1-2; also called NeDLG 1, 2
[4]
  Kd: 1 µM

B10: GST-KIAA0147 PDZ domain 3 (other, not shown: a dimerising Fc or GST)
chain: ILEGPYPVEEIRLPRAGGPLGLSIVGGSDHSSHPFGVQEPGVFISKVLPRGLAARSGLRVGDRILAVNGQDVRDATHQEAVSALLRPCLELSLLVRRDPAEFIVTD
[1]
  Kd: 0.35 µM

B11: GST-KIAA0807(S) PDZ domain 1 (other, not shown: a dimerising Fc or GST)
chain: ISALGSMRPPIIIHRAGKKYGFTLRAIRVYMGDSDVYTVHHMVWHVEDGGPASEAGLRQGDLITHVNGEPVHGLVHTEVVELILKSGNKVAISTTPLENSS
[5]
  Kd: 0.1 µM
[6]
  Kd: 5 µM

B12: GST-DLG2 PDZ domain 2 (other, not shown: a dimerising Fc or GST)
chain: ISVVEIKLFKGPKGLGFSIAGGVGNQHIPGDNSIYVTKIIDGGAAQKDGRLQVGDRLLMVNNYSLEEVTHEEAVAILKNTSEVVYLKVGNPTTI
[5]
  Kd: 0.2 µM

B13: GST-PSD95 PDZ domain 3 (other, not shown: a dimerising Fc or GST)
chain: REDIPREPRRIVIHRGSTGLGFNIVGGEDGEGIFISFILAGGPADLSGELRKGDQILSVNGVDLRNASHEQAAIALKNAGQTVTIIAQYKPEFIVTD
HPV E6 33 (modified)
  Kd: 5 µM

B14: GST-NeDLG PDZ domain 2 (other, not shown: a dimerising Fc or GST)
chain: ITLLKGPKGLGFSIAGGIGNQHIPGDNSIYITKIIEGGAAQKDGRLQIGDRLLAVNNTNLQDVRHEEAVASLKNTSDMVYLKVAKPGSLE
[4]
  Kd: 3.5 µM

B15: GST-BAI-1 Associated Protein PDZ domain 2 (other, not shown: a dimerising Fc or GST)
chain: PSELKGKFIHTKLRKSSRGFGFTVVGGDEPDEFLQIKSLVLDGPAALDGKMETGDVIVSVNDTCVLGHTHAQVVKIFQSIPIGASVDLELCRGYPLPFDPDDPN
notes: also called BAI-1 (2/6)
[4]
  Kd: 3 µM
HPV E6 77 (modified)
  binding result: no binding (tested: 10 uM peptide)
[7]
  binding result: no binding (tested: 10 uM peptide)

B16: GST-FLJ00011 PDZ domain 1 (other, not shown: a dimerising Fc or GST)
chain: KNPSGELKTVTLSKMKQSLGISISGGIESKVQPMVKIEKIFPGGAAFLSGALQAGFELVAVDGENLEQVTHQRAVDTIRRAYRNKAREPMELVVRVPGPSPRPSPSD
[1]
  Kd: 0.35 µM

B17: GST-NeDLG PDZ domain 3 (other, not shown: a dimerising Fc or GST)
chain: ILLHKGSTGLGFNIVGGEDGEGIFVSFILAGGPADLSGELRRGDRILSVNGVNLRNATHEQAAAALKRAGQSVTIVAQYRPEEYSRFESKIHDLREQMMNSSMSSGSGSLRTSEKRSLE
HPV E6 58 (modified) [8]
  Kd: 5 µM

B18: GST-MUPP1 PDZ domain 10 (other, not shown: a dimerising Fc or GST)
chain: LPGCETTIEISKGRTGLGLSIVGGSDTLLGAIIIHEVYEEGAACKDGRLWAGDQILEVNGIDLRKATHDEAINVLRQTPQRVRLTLYRDEAPYKE
HPV E6 58 (modified) [9]
  Kd: 5 µM
